Measurements reported in the supplement of paper PMC9112550, “Optimization of the antimicrobial peptide Bac7 by deep mutational scanning” (BMC Biology, 2022).
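Also: peptides expressed intracellularly from a pBAD plasmid library in pooled LB shake-flask culture, induced with 0.3% L-arabinose, DNA abundance read by NGS, three biological replicates, DESeq2 with apeglm shrinkage.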

These sequences were tested on Escherichia coli TOP10 (assay: shrunken log2 fold change of peptide-encoding DNA abundance (4.5 h post-induction vs induction); higher = less antimicrobial activity (less host growth inhibition)). Details: time post-induction: 4.5 h; library: site-saturation at positions 5, 18, 19, 20.
With RRIRRRPPRLPRPRPRPVWIPRP the “shrunken log2 fold change” value was 0.148. For RRIRRRPPRLPRPRPRPVYGPRP, the “shrunken log2 fold change” value was -0.0668. For RRIRRRPPRLPRPRPRPVYPPRP, the “shrunken log2 fold change” value was -0.284. In the case of RRIRRRPPRLPRPRPRPWACPRP, the “shrunken log2 fold change” value is reported as 0.0634. RRIRRRPPRLPRPRPRPWASPRP was tested, and the “shrunken log2 fold change” value was 0.289. With RRIRRRPPRLPRPRPRPWCIPRP the “shrunken log2 fold change” value was -0.366. In the case of RRIRRRPPRLPRPRPRPWCLPRP, the “shrunken log2 fold change” value is reported as -0.214. With RRIRRRPPRLPRPRPRPWCMPRP the “shrunken log2 fold change” value was -0.107. In the case of RRIRRRPPRLPRPRPRPWFCPRP, the “shrunken log2 fold change” value is reported as -0.101. RRIRRRPPRLPRPRPRPWFNPRP was tested, and the “shrunken log2 fold change” value was -0.241. In the case of RRIRRRPPRLPRPRPRPWFPPRP, the “shrunken log2 fold change” value is reported as -0.44. In the case of RRIRRRPPRLPRPRPRPWHPPRP, the “shrunken log2 fold change” value is reported as 0.0925. In the case of RRIRRRPPRLPRPRPRPWIMPRP, the “shrunken log2 fold change” value is reported as 0.0607. In the case of RRIRRRPPRLPRPRPRPWINPRP, the “shrunken log2 fold change” value is reported as -0.37. With RRIRRRPPRLPRPRPRPWIQPRP the “shrunken log2 fold change” value was 0.0321. In the case of RRIRRRPPRLPRPRPRPWKAPRP, the “shrunken log2 fold change” value is reported as 0.0256. In the case of RRIRRRPPRLPRPRPRPWKMPRP, the “shrunken log2 fold change” value is reported as -0.00577. With RRIRRRPPRLPRPRPRPWLPPRP the “shrunken log2 fold change” value was 0.221. For RRIRRRPPRLPRPRPRPWLYPRP, the “shrunken log2 fold change” value was 0.0161. In the case of RRIRRRPPRLPRPRPRPWNCPRP, the “shrunken log2 fold change” value is reported as 0.0332. With RRIRRRPPRLPRPRPRPWNIPRP the “shrunken log2 fold change” value was -0.0317. RRIRRRPPRLPRPRPRPWPKPRP was tested, and the “shrunken log2 fold change” value was 0.13. In the case of RRIRRRPPRLPRPRPRPWQPPRP, the “shrunken log2 fold change” value is reported as -0.108. RRIRRRPPRLPRPRPRPWRVPRP was tested, and the “shrunken log2 fold change” value was 0.277. For RRIRRRPPRLPRPRPRPWTYPRP, the “shrunken log2 fold change” value was -0.0139. In the case of RRIRRRPPRLPRPRPRPWVCPRP, the “shrunken log2 fold change” value is reported as 0.0925. With RRIRRRPPRLPRPRPRPWVGPRP the “shrunken log2 fold change” value was -0.00367. RRIRRRPPRLPRPRPRPWWAPRP was tested, and the “shrunken log2 fold change” value was 0.0813. For RRIRRRPPRLPRPRPRPWYPPRP, the “shrunken log2 fold change” value was -0.206. With RRIRRRPPRLPRPRPRPYCVPRP the “shrunken log2 fold change” value was -0.462. In the case of RRIRRRPPRLPRPRPRPYCWPRP, the “shrunken log2 fold change” value is reported as -0.474. For RRIRRRPPRLPRPRPRPYDAPRP, the “shrunken log2 fold change” value was -0.635. In the case of RRIRRRPPRLPRPRPRPYEPPRP, the “shrunken log2 fold change” value is reported as -0.846. With RRIRRRPPRLPRPRPRPYHNPRP the “shrunken log2 fold change” value was -0.819. RRIRRRPPRLPRPRPRPYIYPRP was tested, and the “shrunken log2 fold change” value was -0.268. In the case of RRIRRRPPRLPRPRPRPYKRPRP, the “shrunken log2 fold change” value is reported as -0.238. With RRIRRRPPRLPRPRPRPYLYPRP the “shrunken log2 fold change” value was -0.362. With RRIRRRPPRLPRPRPRPYMMPRP the “shrunken log2 fold change” value was -0.699. In the case of RRIRRRPPRLPRPRPRPYNQPRP, the “shrunken log2 fold change” value is reported as -0.207. RRIRRRPPRLPRPRPRPYPAPRP was tested, and the “shrunken log2 fold change” value was 0.0876. For RRIRRRPPRLPRPRPRPYPGPRP, the “shrunken log2 fold change” value was -0.123. RRIRRRPPRLPRPRPRPYQDPRP was tested, and the “shrunken log2 fold change” value was 0.00143. RRIRRRPPRLPRPRPRPYRQPRP was tested, and the “shrunken log2 fold change” value was -0.13. With RRIRRRPPRLPRPRPRPYSVPRP the “shrunken log2 fold change” value was 0.0601. RRIRRRPPRLPRPRPRPYVVPRP was tested, and the “shrunken log2 fold change” value was -0.121. RRIRRRPPRLPRPRPRPYWGPRP was tested, and the “shrunken log2 fold change” value was 0.133. With RRIRRRPPRLPRPRPRPYWWPRP the “shrunken log2 fold change” value was -0.0898. In the case of RRIRRRPPRLPRPRPRPYYCPRP, the “shrunken log2 fold change” value is reported as -0.132. RRIRRRPPRLPRPRPRPYYDPRP was tested, and the “shrunken log2 fold change” value was -1.02. With RRIRRRPPRLPRPRPRPYYGPRP the “shrunken log2 fold change” value was -0.132. RRIRRRPPRLPRPRPRPYYHPRP was tested, and the “shrunken log2 fold change” value was -0.645. For RRIRRRPPRLPRPRPRPYYIPRP, the “shrunken log2 fold change” value was -0.584. In the case of RRIRSRPPRLPRPRPRPAANPRP, the “shrunken log2 fold change” value is reported as 0.403. For RRIRSRPPRLPRPRPRPACKPRP, the “shrunken log2 fold change” value was -0.146. RRIRSRPPRLPRPRPRPADIPRP was tested, and the “shrunken log2 fold change” value was 0.0495. With RRIRSRPPRLPRPRPRPAGKPRP the “shrunken log2 fold change” value was -0.284. In the case of RRIRSRPPRLPRPRPRPAGVPRP, the “shrunken log2 fold change” value is reported as 0.0729. With RRIRSRPPRLPRPRPRPAKEPRP the “shrunken log2 fold change” value was 0.0106. RRIRSRPPRLPRPRPRPAMIPRP was tested, and the “shrunken log2 fold change” value was 0.365. For RRIRSRPPRLPRPRPRPAMLPRP, the “shrunken log2 fold change” value was 0.0679. In the case of RRIRSRPPRLPRPRPRPANRPRP, the “shrunken log2 fold change” value is reported as 0.223. RRIRSRPPRLPRPRPRPAPAPRP was tested, and the “shrunken log2 fold change” value was 0.741. RRIRSRPPRLPRPRPRPAPEPRP was tested, and the “shrunken log2 fold change” value was 0.479. With RRIRSRPPRLPRPRPRPAPHPRP the “shrunken log2 fold change” value was 0.276. In the case of RRIRSRPPRLPRPRPRPAQVPRP, the “shrunken log2 fold change” value is reported as 0.09. With RRIRSRPPRLPRPRPRPARAPRP the “shrunken log2 fold change” value was 0.985. RRIRSRPPRLPRPRPRPARFPRP was tested, and the “shrunken log2 fold change” value was 0.181. RRIRSRPPRLPRPRPRPARQPRP was tested, and the “shrunken log2 fold change” value was -0.0654. With RRIRSRPPRLPRPRPRPARSPRP the “shrunken log2 fold change” value was 0.158. RRIRSRPPRLPRPRPRPAVDPRP was tested, and the “shrunken log2 fold change” value was 0.462. For RRIRSRPPRLPRPRPRPAVRPRP, the “shrunken log2 fold change” value was -0.103. For RRIRSRPPRLPRPRPRPAYAPRP, the “shrunken log2 fold change” value was 0.0867. With RRIRSRPPRLPRPRPRPAYGPRP the “shrunken log2 fold change” value was -0.122. With RRIRSRPPRLPRPRPRPAYPPRP the “shrunken log2 fold change” value was 0.0454. For RRIRSRPPRLPRPRPRPAYTPRP, the “shrunken log2 fold change” value was 0.0457. With RRIRSRPPRLPRPRPRPCAHPRP the “shrunken log2 fold change” value was -0.235. For RRIRSRPPRLPRPRPRPCCMPRP, the “shrunken log2 fold change” value was -0.0571. With RRIRSRPPRLPRPRPRPCECPRP the “shrunken log2 fold change” value was -0.0304. With RRIRSRPPRLPRPRPRPCELPRP the “shrunken log2 fold change” value was 0.0778. For RRIRSRPPRLPRPRPRPCFVPRP, the “shrunken log2 fold change” value was -0.378. RRIRSRPPRLPRPRPRPCHYPRP was tested, and the “shrunken log2 fold change” value was -0.0214. RRIRSRPPRLPRPRPRPCILPRP was tested, and the “shrunken log2 fold change” value was -0.241. With RRIRSRPPRLPRPRPRPCKAPRP the “shrunken log2 fold change” value was 0.00989. With RRIRSRPPRLPRPRPRPCKKPRP the “shrunken log2 fold change” value was -0.121. RRIRSRPPRLPRPRPRPCMKPRP was tested, and the “shrunken log2 fold change” value was -1.6. With RRIRSRPPRLPRPRPRPCPFPRP the “shrunken log2 fold change” value was -0.138. With RRIRSRPPRLPRPRPRPCPTPRP the “shrunken log2 fold change” value was -0.138. For RRIRSRPPRLPRPRPRPCPVPRP, the “shrunken log2 fold change” value was -0.0785. In the case of RRIRSRPPRLPRPRPRPCPYPRP, the “shrunken log2 fold change” value is reported as 0.0125. In the case of RRIRSRPPRLPRPRPRPCQNPRP, the “shrunken log2 fold change” value is reported as 0.0167. For RRIRSRPPRLPRPRPRPCRSPRP, the “shrunken log2 fold change” value was -0.0435. In the case of RRIRSRPPRLPRPRPRPCSFPRP, the “shrunken log2 fold change” value is reported as -0.825. RRIRSRPPRLPRPRPRPCSLPRP was tested, and the “shrunken log2 fold change” value was -0.484. In the case of RRIRSRPPRLPRPRPRPCSRPRP, the “shrunken log2 fold change” value is reported as -0.179. With RRIRSRPPRLPRPRPRPCTMPRP the “shrunken log2 fold change” value was -0.154. RRIRSRPPRLPRPRPRPCVGPRP was tested, and the “shrunken log2 fold change” value was -0.0336. For RRIRSRPPRLPRPRPRPCVPPRP, the “shrunken log2 fold change” value was -0.0369. RRIRSRPPRLPRPRPRPCVRPRP was tested, and the “shrunken log2 fold change” value was -0.103. RRIRSRPPRLPRPRPRPCWCPRP was tested, and the “shrunken log2 fold change” value was 0.0677. RRIRSRPPRLPRPRPRPCWNPRP was tested, and the “shrunken log2 fold change” value was -0.296. With RRIRSRPPRLPRPRPRPCYHPRP the “shrunken log2 fold change” value was -0.297. For RRIRSRPPRLPRPRPRPDEFPRP, the “shrunken log2 fold change” value was -0.149. In the case of RRIRSRPPRLPRPRPRPDFGPRP, the “shrunken log2 fold change” value is reported as 0.0573. With RRIRSRPPRLPRPRPRPDFRPRP the “shrunken log2 fold change” value was -0.0983. With RRIRSRPPRLPRPRPRPDGTPRP the “shrunken log2 fold change” value was -0.199. For RRIRSRPPRLPRPRPRPDHFPRP, the “shrunken log2 fold change” value was 0.0963. RRIRSRPPRLPRPRPRPDHIPRP was tested, and the “shrunken log2 fold change” value was -0.119. In the case of RRIRSRPPRLPRPRPRPDIMPRP, the “shrunken log2 fold change” value is reported as -0.661. In the case of RRIRSRPPRLPRPRPRPDKPPRP, the “shrunken log2 fold change” value is reported as -0.266.
